Earlier results as cited in paper PMC10299133.

Molecular target: MET (Homo sapiens) (UniProt P08581)
Sequence (P08581 25-932): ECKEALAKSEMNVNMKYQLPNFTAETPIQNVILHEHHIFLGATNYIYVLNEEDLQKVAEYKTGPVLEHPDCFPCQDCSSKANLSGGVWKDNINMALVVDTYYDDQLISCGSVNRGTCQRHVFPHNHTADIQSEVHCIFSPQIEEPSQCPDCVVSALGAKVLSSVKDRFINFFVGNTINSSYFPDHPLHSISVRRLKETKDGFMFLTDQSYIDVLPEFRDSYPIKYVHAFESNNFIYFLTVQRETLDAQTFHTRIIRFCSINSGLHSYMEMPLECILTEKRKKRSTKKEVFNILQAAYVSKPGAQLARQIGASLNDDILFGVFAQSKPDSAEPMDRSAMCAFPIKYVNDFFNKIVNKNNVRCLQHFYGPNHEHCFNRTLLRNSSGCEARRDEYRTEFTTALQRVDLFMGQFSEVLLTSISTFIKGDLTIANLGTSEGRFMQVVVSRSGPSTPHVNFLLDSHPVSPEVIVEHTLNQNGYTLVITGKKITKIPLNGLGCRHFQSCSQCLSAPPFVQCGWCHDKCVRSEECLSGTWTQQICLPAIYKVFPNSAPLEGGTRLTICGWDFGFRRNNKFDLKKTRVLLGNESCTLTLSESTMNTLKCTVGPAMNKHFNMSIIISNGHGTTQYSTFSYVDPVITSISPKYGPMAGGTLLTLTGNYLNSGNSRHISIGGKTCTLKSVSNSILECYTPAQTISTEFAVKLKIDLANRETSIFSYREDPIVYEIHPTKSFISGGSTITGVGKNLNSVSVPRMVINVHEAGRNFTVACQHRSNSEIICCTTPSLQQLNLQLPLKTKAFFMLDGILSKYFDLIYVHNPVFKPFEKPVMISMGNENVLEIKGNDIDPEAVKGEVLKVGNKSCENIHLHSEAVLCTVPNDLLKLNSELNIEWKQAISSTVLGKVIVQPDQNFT

- Kd: 0.04 nM
Substance: amivantamab
